Reference: US20230183713A1, “SITE-SPECIFIC RECOMBINASES FOR EFFICIENT AND SPECIFIC GENOME EDITING” (TECHNISCHE UNIVERSITÄt DRESDEN, published 2023)

Assays:
Assay in all cases: cell_activity; E. coli plasmid assay, median
Conditions in all cases: chain copies: 2
Cre Q311R + Cre W315M = Cre Q311R + Cre W315M (UniProt P06956;P06956 SEQ:1-343,SEQ:1-343, W315M (second monomer))
Method: (§1) To generate further obligate recombinases, additional single mutations in the catalytic region (i.e. at amino acid positions 129-136, 163-181, 199-211, 289-301, 310-316 and 321-324 of SEQ ID NO: 1, cf. FIG. 17A, dark regions) of the recombination synapse of the Cre recombinase (Guo et al. 1997, Lee et al. 2002, Gibb et al. 2010, Meinke et al. 2016) were introduced as outlined in Table 6 below. […] Recombination activity of the recombinases on loxP was measured by a plasmid-based assay as previously described (6, 9, 10). in the experiments, the recombined pEVO is smaller in size compared to the non-recombined pEVO. […] These two different fragments can either be distinguished by gel electrophoresis or by sequencing. The recombination efficiencies (indicated as dimer and monomer acitivty, respectively) were calculated based on the ratio of recombined and non-recombined substrate using the following formula: Recombination activity (%)=100×(recombined substrate/(recombined+non-recombined substrates)).

Cre K201F + Cre Y324C = Cre K201F + Cre Y324C (UniProt P06956;P06956 SEQ:1-343,SEQ:1-343, K201F (first monomer); Y324C (second monomer))
Method: as §1

Cre K201A + Cre Q311R = Cre K201A + Cre Q311R (UniProt P06956;P06956 SEQ:1-343,SEQ:1-343, K201A (first monomer))
Method: as §1

Cre E129R + Cre K201R = Cre E129R + Cre K201R (UniProt P06956;P06956 SEQ:1-343,SEQ:1-343, E129R (first monomer))
Method: as §1

Cre R173F + Cre E176V = Cre R173F + Cre E176V (UniProt P06956;P06956 SEQ:1-343,SEQ:1-343, R173F (first monomer); E176V (second monomer))
Method: as §1

Cre E176I + Cre Q311R = Cre E176I + Cre Q311R (UniProt P06956;P06956 SEQ:1-343,SEQ:1-343, E176I (first monomer))
Method: as §1

Cre R173G + Cre K201Y = Cre R173G + Cre K201Y (UniProt P06956;P06956 SEQ:1-343,SEQ:1-343, R173G (first monomer); K201Y (second monomer))
Method: as §1

Cre Q311R + Cre W315S = Cre Q311R + Cre W315S (UniProt P06956;P06956 SEQ:1-343,SEQ:1-343, W315S (second monomer))
Method: as §1

Cre Q311R + Cre Y324F = Cre Q311R + Cre Y324F (UniProt P06956;P06956 SEQ:1-343,SEQ:1-343, Y324F (second monomer))
Method: as §1

Cre R292G + Cre Q311R = Cre R292G + Cre Q311R (UniProt P06956;P06956 SEQ:1-343,SEQ:1-343, R292G (first monomer))
Method: as §1

Cre R173S + Cre Q311R = Cre R173S + Cre Q311R (UniProt P06956;P06956 SEQ:1-343,SEQ:1-343, R173S (first monomer))
Method: as §1

Cre Q133H + Cre Q311R = Cre Q133H + Cre Q311R (UniProt P06956;P06956 SEQ:1-343,SEQ:1-343, Q133H (first monomer))
Method: as §1

Cre E129R + Cre Q311R = Cre E129R + Cre Q311R (UniProt P06956;P06956 SEQ:1-343,SEQ:1-343, E129R (first monomer))
Method: as §1

Cre R173A + Cre Q311R = Cre R173A + Cre Q311R (UniProt P06956;P06956 SEQ:1-343,SEQ:1-343, R173A (first monomer))
Method: as §1

Cre Q311R + Cre Y324I = Cre Q311R + Cre Y324I (UniProt P06956;P06956 SEQ:1-343,SEQ:1-343, Y324I (second monomer))
Method: as §1

Cre W315Q + Cre Y324V = Cre W315Q + Cre Y324V (UniProt P06956;P06956 SEQ:1-343,SEQ:1-343, W315Q (first monomer); Y324V (second monomer))
Method: as §1

Cre W315K + Cre Y324K = Cre W315K + Cre Y324K (UniProt P06956;P06956 SEQ:1-343,SEQ:1-343, W315K (first monomer); Y324K (second monomer))
Method: as §1

Cre E176W + Cre Q311R = Cre E176W + Cre Q311R (UniProt P06956;P06956 SEQ:1-343,SEQ:1-343, E176W (first monomer))
Method: as §1

Cre H289D + Cre Q311R = Cre H289D + Cre Q311R (UniProt P06956;P06956 SEQ:1-343,SEQ:1-343, H289D (first monomer))
Method: as §1

Cre K201M + Cre K201R = Cre K201M + Cre K201R (UniProt P06956;P06956 SEQ:1-343,SEQ:1-343, K201M (first monomer))
Method: as §1

Cre R292Y + Cre Y324M = Cre R292Y + Cre Y324M (UniProt P06956;P06956 SEQ:1-343,SEQ:1-343, R292Y (first monomer); Y324M (second monomer))
Method: as §1

Cre R292F + Cre Q311R = Cre R292F + Cre Q311R (UniProt P06956;P06956 SEQ:1-343,SEQ:1-343, R292F (first monomer))
Method: as §1

Cre H289W + Cre W315C = Cre H289W + Cre W315C (UniProt P06956;P06956 SEQ:1-343,SEQ:1-343, H289W (first monomer); W315C (second monomer))
Method: as §1

B1: loxP (dsDNA)
DNA 1: ATAACTTCGTATAATGTATGCTATACGAAGTTAT
DNA 2: ATAACTTCGTATAGCATACATTATACGAAGTTAT
activity (Cre Q311R + Cre W315M): 95 % recombined | activity (Cre K201F + Cre Y324C): 98 % recombined | activity (Cre K201A + Cre Q311R): 95 % recombined | activity (Cre E129R + Cre K201R): 26 % recombined | activity (Cre R173F + Cre E176V): 82 % recombined | activity (Cre E176I + Cre Q311R): 36 % recombined | activity (Cre R173G + Cre K201Y): 95 % recombined | activity (Cre Q311R + Cre W315S): 37 % recombined | activity (Cre Q311R + Cre Y324F): 95 % recombined | activity (Cre R292G + Cre Q311R): 97 % recombined | activity (Cre R173S + Cre Q311R): 97 % recombined | activity (Cre Q133H + Cre Q311R): 96 % recombined | activity (Cre E129R + Cre Q311R): 93 % recombined | activity (Cre R173A + Cre Q311R): 93 % recombined | activity (Cre Q311R + Cre Y324I): 96 % recombined | activity (Cre W315Q + Cre Y324V): 97 % recombined | activity (Cre W315K + Cre Y324K): 99 % recombined | activity (Cre E176W + Cre Q311R): 90 % recombined | activity (Cre H289D + Cre Q311R): 97 % recombined | activity (Cre K201M + Cre K201R): 76 % recombined | activity (Cre R292Y + Cre Y324M): 90 % recombined | activity (Cre R292F + Cre Q311R): 42 % recombined | activity (Cre H289W + Cre W315C): 87 % recombined
